In patent US20140289906A1, “Compositions Having Dicamba Decarboxylase Activity and Methods of Use” (priority 2013, published 2014):

Assay: 14C assay: 14CO2 capture from [14C]-carboxyl-labeled dicamba with IPTG-induced recombinant E. coli cells
Settings: for Dicamba Decarboxylase Activity: IPTG-induced recombinant E. coli cells, 14CO2 from [14C]-carboxyl-labeled dicamba; for Enzymatic Detection level: dicamba decarboxylation activity

B1: 23 (protein, listed as Aplysina aerophoba)
chain: MAIDIDARSQPGLETARRAMSRRDFLGGAAAFGITAAATTALPASTAAGEEEDLFLLGLEEHFATAELRRLNGIQFPQGTPRFDINDVGAGRIADMDAAGIDIQVLSALTPGAQNLPGAEGVAYARRLNSWVAHEVIPAYPGRFRAFATLPLSEPQAAADELEYAVRELGFLGCMTYGAVDGKFLDHADFVPVLARAETLDVPIYIHPNWASPQVMDTYYNGLGNEWVSRVLSGAGYGWHQEVALQCLRMIASGVFDRFPRLQIIVGHMGEGLPFFYWRFGDDLARITADTLEKPVQQYFHDNFWITTSAFFRDELLRLVLSVMGEDRVMFAVDYPFVSNKVGADWFRAVDLPRNVKEKIAHKNAERLLKIGPF
Dicamba Decarboxylase Activity: Low | Enzymatic Detection level: Low

B2: 15 (protein, listed as Metarhizium anisopliae)
chain: MAQEIAKSHETSTRFAGFAVLPMRDPEAAAKELERAVKKLGFVGALVDHKTAHGNGFCEGNEYDVLWRKAEQLAVPIYLHPSWPTEKQFQQAYAGNYSPTAAGTIGGAMFNWHSEVGHHVLRLYAAGVFDKFPKLKIIIGHFGEMIPYMLDRIREQDHRLGKTGRTFSEVYDENIWITTSGVWSLDPMRCILANTKIDHILYSVDYPFTMNERGLEWFQELEKSGLLSEEDLALIAYKNCEKLLGVKAPTQD
Dicamba Decarboxylase Activity: Low | Enzymatic Detection level: Low

B3: 18 (protein, listed as Legionella pneumophila)
chain: MAIVDFETHFITEACIDYLTQRQEVPKLVPELNGAYTMCFTPDVSLFHTSALMEELLSLNEQRLAIMDQAGVTIQVLSLTTINGIDSCPGDENKSTALAREVNDQLYSAIQKHPERFKGFASISPYDVKEGVKELERAISQLGFVGWLTHSNFGQDNYLDDKIYWPLLEAAESLNIPIYLHPNVPIMREFGKYGFALGGSALGFEFDTALCLMRMILGGVFDAFPKLKIMLGHLGETMPFLMERLDHLYRIPDLKPYRPSIQRIPSEVLRQNVYITTSGRFFVPALRYVLEVMGEDRVLFASDYPMESLLDATRFIQDSDLSNQTKQKIFSINAKNLNLI
Dicamba Decarboxylase Activity: Low | Enzymatic Detection level: Low

B4: 20 (protein, listed as Legionella pneumophila)
chain: MAIVDFETHFITEACIDYLTQRQEVPKLVPDLNGAYTMCFTPDVSLFHTSALMEELLSLNEQRLAIMDQAGVTIQVLSLTTINGIDSCPGDENKSTALAREVNDQLYSAIQRHPERFKGFASISPYDVKEGVKELERAISQLGFVGWLTHSNFGQDNYLDDKTYWPLLEAAEGLNIPIYLHPNVPIMREFGKYGFALGGSALGFEFDTALCLMRMILGGVFDAFPKLKIMLGHLGETMPFLMERLDHLYRIPDLKAYRPSIQRIPSEVLRQNVYITTSGRFFVPALRYVLEVMGEDRVLFASDYPMESLLDATRFIQDSDLSNQTKQKIFSINAKNLNLI
Dicamba Decarboxylase Activity: Low | Enzymatic Detection level: Low

B5: 14 (protein, listed as Talaromyces marneffei)
chain: MARGKVSFEEAYEIPALADKSREQAALYIAPKDLDRYLSEIKSPTGGRLDISNKNGIGYTIYSLTVPGVQGIADKAKAEKHATDVNNWIYNEIKDHRDRMGAFAALSMHDPVQAGQELERCVKKLGFHGALLNNWQHAGTDGETYIFYDHPSYDVFWQKCVELDVPVYLHPSAPSGKVFDTFFKDRRYLIGPPISFAQDVALHTMGLITNGVFDRNPKLKLILGHLGERIPQDLWRTNHWLEDVERPLADSRGDTMSRKPLLYYFKNNIYVTTSGHFSTETVKFVCDYFGADRILFSVDSPYEKIEEGAGWYDKDKDNLTKALGGPQQYLDVGRENAKKLFKLGKYHDCDA
Dicamba Decarboxylase Activity: Low | Enzymatic Detection level: Low

B6: 9 (protein, listed as Octadecabacter antarcticus)
chain: MATPKITFEEHFMAPGFEKHSEAFLKLIPRDQAEILTRRLGDFDGERIETMDRGGITRSIISLTGPGTQGEAVEKAVSAAQGANDFLAEKISKKPDRLGGLATLPMHDPDAAARELNRAVNDLGLQGCLVNTHTHGAYYEGTDYDPFWAEVEKLGVPFYLHPSNAYVTPHVLGGMPVLQGATWGWGVETGSHALRILFGGVFDRFPDVKLVLGHMGEALPFLRWRYDSRFGAYPMGVSLDRAPSAYFGSNILITTSGVCSHPSLIGAIGEMGADAVMFSVDYPYEDTDLAVEFIETAPLEDATRVKICHDNAARLFGMPTLAAKEGA
Dicamba Decarboxylase Activity: No | Enzymatic Detection level: No

B7: 12 (protein, listed as Zymoseptoria tritici)
chain: MALGKVAFEEAFALPRFKERTTWWAGLFAVDPEKHTREINDINKLRIEKMDQFGVGYTLLSYTAPGVQDVWQQEEADALAREVNDHVAAEIKGHEDRLGALATLSMHDPQTASAELRRCIKDYGFKGALVNDTQRNDESGTGMIFYDGPEWDVFWSTVQELDVPFYLHPRNPTGVFMEKLWAPRKWLVGPPLSFAQGVSLHLLGMVTNGTFDRFPNLQVIIGHLGEHLPFDLWRINHWFEDIKKPLGLDCKKTIREYFNENIWITTSGHFSTPTLEYCIKEIGAERILFSIDYPFEKFEDACDWYDGVELDGPDTVKKIGRENAKKLFKLGAFKDDSA
Dicamba Decarboxylase Activity: No | Enzymatic Detection level: No

B8: 10 (protein, listed as Starkeya novella)
chain: MARKIALEEHFTTPELAGKYVARPTQSDALFADIERRLADFDELRLEMMDRAEIDLMVLSVTTPGVQGVRDTGEAIRLARGANDFLAREVQKRPSRYAGFAHLAMQDAEAAATELERAVRELGFRGALINGQTNGHYLDEDQYAPFWERVQELDVPVYLHPGNMADSPAMFAHRPELGGPIWAWTAETAAHALRLVFGGTFTRFPGAKVILGHMGETLPFLLWRLDSRREFDLGEKLAPDALPSAIIKRNIAVTTSGVCDPAPLVAALQALSDDNVMFSVDYPYEDPQLASKFIETAPIGEETRAKVCHGNAERLLGL
Dicamba Decarboxylase Activity: Low | Enzymatic Detection level: Low

B9: 11 (protein)
chain: MALGKIALEEAFALPRFEEKTRWWASLFSVDPETHVKEITDINKLRIEHADKYGVGYQILSYTAPGVQDIWDPVEAQALAVEINDYIAEQIRDKPDRFGAFATLSMHNPQEAASELRRCVQTYGFKGALVNDTQRAGPDGDDMIFYDNASWDIFWQTCTELDVPLYLHPRNPTGTIYEKLWADRKWLVGPPLSFAQGVSLHVLGMVTNGVFDRHPNLQLIMGHLGEHVPFDMWRINHWFEDRKKLLGLAETCKKTIREYFAQNIWITTSGHFSTTTLNFCMAEVGVDRILFSIDYPFETFEDACVWFDGAELNLSDKAKIGRDNAARLFKLGAFRDYDAKVKA
modifications: Aspergillus niger
Dicamba Decarboxylase Activity: Low | Enzymatic Detection level: Low

B10: 13 (protein, listed as Metarhizium acridum)
chain: MAHGKVALEEAFALPRLHEKTRWWASLFAVNPDKHAAEMTDITDIRINYMDKHGVGYTILSYTAPGVQDISDPKEAQALAVEINDYVAGAIKNHPDRFGAFATLSMRNPQEAATELKRCVTQYGFKGALVNDTQRAGEDDMIFYDGPEWDVFWSTVEELDVPFYLHPRNPTGSLYEKLWAKRKWLVGPPLSFAQGVSLHVLGMVTNGVFDRHPKLQVVLGHLGEHIPFDMWRINHWFEDVKKPLGLDCKKTIREYFQQNIWITTSGHFSTTTLQFCMAEVGADRILFSIDYPFECFADACDWYDGVPINLVDKAKIGRDNARRLFKLPEFKDSEKHVDA
Dicamba Decarboxylase Activity: No | Enzymatic Detection level: No

B11: 17 (protein)
chain: MARGKIALEEAFEVKGMDEEIDAQAALYIAPKDVERYKRQIVSITDERLQLSDQNGIGYSILSLTVPGIQGITDKDKAEKRARDVNNYIHDQIKDHRDRLGAFAALSMHDPRQAGHELRRCVKELGFHGALLNDVQHTGEGDDDQPLFYDQPDYDEFWRVAVELDVPVYLHPAAPLRDTLIYKQSYEDRKYLVGPPQSYCNGVALHLMGIIVNGVFDRFPNLKVIVGHMGERIPFDFWRMDHWVKGVTRPLAEKNGDTVCQKEPLYYFKRNIYITTSGHFSTQNLRYLYEWLGDERMMFSVDFPYERMEHGCQWYDDDAEKIKEALGGRDGYLRVGRDNARRLFKLTKFKDCDAV
modifications: Aspergillus niger
Dicamba Decarboxylase Activity: Low | Enzymatic Detection level: Low
